The source of these data is US20050170334A1.

Among the targets are M15 (influenza A virus); M16 (influenza A virus); NM15 (influenza A virus); NM16 (influenza A virus); NM17 (influenza A virus).
What all share (test): ELISA, peptide coated, antibody 10 µg/ml
In general terms: An ELISA detects its analyte on a solid surface through an enzyme-linked reagent.

In assay [1] the target is M2 peptide (extracellular 23-amino-acid M2 peptide) (influenza A virus).

B1: C40G1 (antibody, V domains shown)
VH: QLQLQESGPGLVKPSETLSLTCTVSGGSISSSFYYCGWIRQPPGKGLEWIGSIYYRGSTYYNPSLKSRVTISVDTSKNQFSLKLSSVTAADTAVYYCARRVTMVRGVKGDYFDYWGQGTLVTVSS
VL: DIQMTQSPSSLSASVGDRVTITCRASQGISSWLAWYQQKPEKVPKSLIYAASSLQSGVPSRFSGSGSGTDFTLTISSLQPEDFATYYCQQYNYYPLTFGGGTKVEIKR
Consider B1, for which the ELISA (OD450) with M15 (influenza A virus) worked out at 2.73 OD450; with M16 (influenza A virus), 2.64 OD450; in assay [1] it was 2.56 OD450; with NM15 (influenza A virus), 2.51 OD450; in the assay with NM16 (influenza A virus), 2.37 OD450; with NM17 (influenza A virus) it was 2.41 OD450.
